Legend:
HES1 = experiment: DLL4-Fc coated plate NOTCH activation (HES1 qRT-PCR), THP-1; assay type: cell-based, human; settings: pre-treated 30 min: 10 μM AVA, 100 μg/ml anti-EGFL7 or 0.25 μM rEGFL7; then 4 h; vs DLL4-FC
Method: FIG. 24A-24G. EGFL7 prevents activation of NOTCH signaling in AML cells. (FIG. 24A) Overview of experiments using DLL4-FC and IgG-FC control coated plates to induce NOTCH activation. (FIG. 24B) THP-1 cells were pre-treated with 10 μM γ-secretase inhibitor (AVA), 100 μg/ml anti-EGFL7 antibody or 0.25 μM rEGFL7 for 30 min, then transferred to IgG-Fc or DLL4-Fc coated plates. After 4 h of incubation total RNA from THP-1 cells was extracted for qRT-PCR analysis of HES1 with β-ACTIN as internal control. ^###P<0.001 DLL4-FC vs IgG-FC; ***P<0.001 DLL4+AVA, DLL4+rEGFL7, and DLL4+anti-EGFL7 vs DLL4-FC. (FIG. 24C) Primary AML blasts were pretreated with 10 μM γ-secretase inhibitor (AVA), 100 μg/ml anti-EGFL7 antibody or 0.25 μM rEGFL7 for 30 min, then transferred to IgG-Fc or DLL4-Fc coated plates. After 4 h of incubation, total RNA was extracted for RT-PCR analysis of HES1 mRNA with β-ACTIN as internal control. ^###P<0.001 DLL4-Fc vs IgG-Fc; *P<0.05, ***P<0.001 vs DLL4 Fc. THP-1 cells were treated with the indicated concentration of anti-EGFL7 (@E7) then assessed for apoptosis using (FIG. 24D) AnnexinV+ staining and FACS; *P<0.05 (FIG. 24E) Immuno-blotting for PARP1 and Casp3 cleavage. (FIG. 24F) Cell differentiation was assessed by CD11B and CD14 staining 96-hours post anti-EGFL7 treatments; *P<0.05. (FIG. 24G) To determine whether activation of NOTCH by DLL4-Fc could be accentuated by anti-EGFL7 treatment, THP-1 cells were first treated with anti-EGFL7 (100 μg/ml) and then cultured on DLL4-FC or IgG-Fc coated plates and then assessed for apoptosis using AnnexinV+ staining and FACS. *P<0.05 DLL4-Fc and anti-EGFL7; vs DLL4-FC+anti-EGFL7.
Total RNA was extracted using Trizol reagent (Invitrogen, Carlsbad, Calif., USA). cDNA was synthesized using SuperScript III reagents (Invitrogen) according to the manufacturer's instruction. Quantitative Real-Time RT-PCR was performed using commercially available TaqMan Gene Expression Assay primers and the 7900HT Fast Real-Time PCR System (Applied Biosystems, Foster City, Calif., USA). […]

human AML blasts = experiment: CFU assay, blasts of AML patients; assay type: cell-based
Method: FIG. 4A-4E. EGFL7 stimulates the proliferation of human and mouse acute myeloid leukemia (AML cells). Bone marrow cells from wild-type (WT) mice (FIG. 4A), and Mll^PTD/WTFlt3^ITD/WT mice (FIG. 4B), were treated without (Unstim) or with 0.1, 0.25, or 0.5 μM recombinant mouse Egfl7 (rEgfl7) in IMDM medium+2% bovine serum albumin (BSA) for 24, 48, 72 and 96 hours. At the indicated time points, the number of viable cells was determined by trypan blue dye exclusion assay. Each condition was repeated in triplicate. NS indicates not significant, * indicates P<0.05, ** indicates P<0.01. (FIG. 4C). […] The colonies with more than 50 cells were enumerated using a light microscope. Each condition for each patient (n=4) was plated in triplicate, ** indicates P<0.01, *** indicates P<0.001. (FIG. 4D) Blasts from AML patients (n=4) were cultured in SFEM+2% BSA in the absence or presence of 0.25 μM rEGFL7 for 20 min. Total proteins were extracted for immunoblotting of phosphorylated AKT-S473 (pAKT-S473), total AKT and GAPDH. (FIG. 4E) AML blasts from Mll^PTD/WTFlt3^ITD/WT mice (n=3) were cultured in IMDM medium+2% BSA in the absence or presence of […] recombinant rEgfl7 for 20 min. […]
FIG. 5. […] The number of colonies with more than 50 cells was counted under a light microscope. […]
Colonies with more than 50 cells were counted using a light microscope. […]

B1: Parsatuzumab: Anti-human EGFL7 therapeutic antibody (Parsatuzumab) obtained from Creative Biolabs; blocking monoclonal antibody (antibody, chains of the INN, looked up, V domains shown)
VH: EVQLVESGGGLVQPGGSLRLSCAASGYTFIDYYMNWVRQAPGKGLEWVGDINLDNSGTHYNQKFKGRFTISRDKSKNTAYLQMNSLRAEDTAVYYCAREGVYHDYDDYAMDYWGQGTLVTVSS
VL: DIQMTQSPSSLSASVGDRVTITCRTSQSLVHINAITYLHWYQQKPGKAPKLLIYRVSNRFSGVPSRFSGSGSGTDFTLTISSLQPEDFATYYCGQSTHVPLTFGQGTKVEIK
Q: What does the source list for B1?
A: DLL4-Fc-mediated NOTCH activation (HES1) (HES1): enhanced; cell growth (numbers of formed colonies in CFU assays) (human AML blasts; 2, 10, 50, or 250 μg/ml for 2 h, then 10 days, vs normal IgG): significant decreases in cell growth; blast growth (number of CFUs) (human AML blasts; increasing concentrations for 4 hours, then 10 days in methylcellulose, n=4, vs IGg1 control): dose dependent decrease in blast growth

— patent publication US11702469B2, “Recombinant EGFL7, EGFL7 antibodies, and uses thereof” (Ohio State Innovation Foundation, priority 2017, dated 2023)
